Measured values published in the Immune Epitope Database (IEDB).
pIC50, pKd: −log10 of the molar value. One block for each sequence: values may come before it.

Columns and labels:
[1] = biological target: HLA-A*30:01; assay: IEDB peptide-MHC binding, purified MHC/competitive/radioactivity; filed as Kd, often an IC50 or EC50 that approximates it; ≥ and ≤ were set here for values at or beyond the usual limits of such assays
[2] = biological target: HLA-A*02:01; assay: IEDB peptide-MHC binding, purified MHC/competitive/fluorescence; ≥ and ≤ were set here for values at or beyond the usual limits of such assays
[3] = biological target: HLA-B*15:01; assay: IEDB peptide-MHC binding, purified MHC/direct/fluorescence; filed as Kd, often an IC50 or EC50 that approximates it; ≥ and ≤ were set here for values at or beyond the usual limits of such assays
[4] = biological target: HLA-B*07:02; assay: IEDB peptide-MHC binding, purified MHC/competitive/radioactivity; filed as Kd, often an IC50 or EC50 that approximates it; ≥ and ≤ were set here for values at or beyond the usual limits of such assays
[5] = biological target: HLA-A*01:01; assay: IEDB peptide-MHC binding, purified MHC/direct/fluorescence; filed as Kd, often an IC50 or EC50 that approximates it; ≥ and ≤ were set here for values at or beyond the usual limits of such assays
[6] = biological target: HLA-A*03:01; assay: as above
[7] = biological target: HLA-A*11:01; assay: as above
[8] = biological target: HLA-A*69:01; assay: as above
[9] = biological target: HLA-A*02:01; assay: as above
[10] = biological target: HLA-A*26:01; assay: IEDB peptide-MHC binding, purified MHC/competitive/radioactivity; filed as Kd, often an IC50 or EC50 that approximates it; ≥ and ≤ were set here for values at or beyond the usual limits of such assays
[11] = biological target: HLA-A*01:01; assay: as above
[12] = biological target: HLA-B*51:01; assay: as above
[13] = biological target: HLA-B*53:01; assay: as above
[14] = biological target: HLA-B*35:01; assay: as above
[15] = biological target: HLA-B*07:02; assay: IEDB peptide-MHC binding, purified MHC/direct/fluorescence; filed as Kd, often an IC50 or EC50 that approximates it; ≥ and ≤ were set here for values at or beyond the usual limits of such assays
[16] = biological target: HLA-B*40:01; assay: as above
[17] = biological target: HLA-A*02:02; assay: IEDB peptide-MHC binding, purified MHC/competitive/radioactivity; filed as Kd, often an IC50 or EC50 that approximates it; ≥ and ≤ were set here for values at or beyond the usual limits of such assays; settings: source organism: Lymphocytic choriomeningitis virus (strain Armstrong)
[18] = biological target: HLA-A*02:03; assay: as above; settings: source organism: Lymphocytic choriomeningitis virus (strain Armstrong)
[19] = biological target: HLA-A*02:06; assay: as above; settings: source organism: Lymphocytic choriomeningitis virus (strain Armstrong)
[20] = source organism: Dengue virus 2 Jamaica/1409/1983
[21] = source organism: Vaccinia virus
[22] = source organism: Dengue virus 3 Martinique/1243/1999
[23] = source organism: Vaccinia virus Copenhagen
[24] = source organism: Brucella abortus 2308
[25] = source organism: Dengue virus 4 Dominica/814669/1981
[26] = source organism: Dengue virus 1 Brazil/97-11/1997
[27] = source organism: Dengue virus 4 Philippines/H241/1956
[28] = source organism: Bacillus cereus
[29] = source organism: Zaire ebolavirus
[30] = source organism: Escherichia coli
[31] = source organism: Rickettsia sibirica
[32] = source organism: Francisella tularensis subsp. holarctica LVS
[33] = source organism: Entamoeba histolytica HM-1:IMSS
[34] = source organism: Vibrio cholerae

Sequence: AAMYQYIFL
pKd ([1]; source organism: Vaccinia virus WR): 8.12

Sequence: AFIHIPGDT
pIC50 ([2]; source organism: Variola virus): 4.61

Sequence: ALSTGAGAY
pKd ([3]; source organism: Mycobacterium tuberculosis F11): 6.36

Sequence: AVSRGSAKLR
pKd [1, 20]: 5.92

Sequence: CIDILRSLE
pIC50 [2, 21]: 4.29

Sequence: CPTQGEAVL
pKd [4, 22]: 7.27

pKd ([5]; source organism: Homo sapiens): 6.37
pKd ([6]; source organism: Homo sapiens): 4.96
pKd ([7]; source organism: Homo sapiens): 6.86
Sequence: CSDDGFWSK

Sequence: CSSISIKLT
pIC50 [2, 23]: ≤ 3.14

pKd ([8]; source organism: Haemophilus influenzae): 6.45
Sequence: DLNKVIQFL

Sequence: DLSLGNQEL
pKd [9, 24]: ≤ 5.00
pKd [8, 24]: ≤ 4.70

Sequence: DSLSSQMTS
pIC50 [2, 23]: ≤ 3.62

Sequence: DTVTYKCPL
pKd [10, 25]: 5.90

Sequence: EFLDYMPSM
pKd [10, 22]: 4.79

Sequence: ESALNDTWKI
pKd ([10]; source organism: Dengue virus 2 Peru/IQT2913/1996): ≤ 4.16

Sequence: ETLGEKWKRQ
pKd [10, 26]: 4.91

Sequence: EYVDYMPVM
pKd [10, 27]: ≤ 4.67

pKd ([11]; source organism: Homo sapiens): 6.70
Sequence: FLGGNEVGKTY

Sequence: FLPKAAYAL
pKd ([9]; source organism: Mammarenavirus juninense): 8.55

Sequence: FPQSNAPIMD
pKd [12, 20]: 5.38
pKd [13, 20]: 6.95

Sequence: FPQSNSPIED
pKd [14, 27]: 6.20
pKd [12, 27]: ≤ 4.43
pKd [13, 27]: 5.74

Sequence: FPYSIPATL
pKd [14, 22]: 8.70
pKd [12, 22]: 7.05
pKd [13, 22]: 8.67

Sequence: FTTNIWLKL
pKd [11, 20]: 5.88

Sequence: GIYCTVPFI
pKd [9, 28]: 6.95
pKd [8, 28]: 6.41

pKd ([9]; source organism: Homo sapiens): 5.25
Sequence: GLRAIKSVL

Sequence: GMNAPDDLV
pIC50 [2, 29]: 5.20

Sequence: GPRQWRWPL
pKd ([15]; source organism: Mycobacterium tuberculosis str. Haarlem): 7.85

Sequence: GTHPTTTYK
pKd ([6]; source organism: Mycobacterium tuberculosis variant bovis): 6.11

Sequence: GTTFAEGVV
pIC50 [2, 29]: 4.51

Sequence: HTIENSTAN
pKd [10, 22]: 5.16

Sequence: IPERSWNSGY
pKd [14, 26]: 6.81

Sequence: IPKIYGGPIS
pKd ([4]; source organism: Dengue virus 1 Singapore/S275/1990): 6.29

pKd [5, 30]: 5.15
pKd [8, 30]: 5.77
Sequence: ISEPMFHQG

Sequence: KLYFWIPWS
pKd [9, 31]: 6.70
pKd [8, 31]: ≤ 4.70

Sequence: KLYGLSQGY
pKd [6, 32]: 8.33
pKd [7, 32]: 6.68

Sequence: LATGPILTLW
pKd [13, 25]: 7.82

pKd ([16]; source organism: Corynebacterium diphtheriae): 7.36
Sequence: LEEEGVTPL

Sequence: LEKVQRQIQ
pIC50 [2, 29]: ≤ 3.35

Sequence: LGVATAHGS
pIC50 [2, 29]: ≤ 3.56

Sequence: LIGLSSRATW
pKd [13, 27]: 6.42

Sequence: LLFEVEQEI
pKd ([9]; source organism: Influenza A virus (A/Saudi Arabia/7971/2000(H1N1))): 7.80

Sequence: LPIRYQTTA
pKd [12, 22]: 4.80

Sequence: LPLPWTAGAD
pKd [14, 25]: 5.09
pKd [12, 25]: ≤ 4.16

Sequence: LPTYLSSRAK
pKd [14, 27]: 4.82
pKd [12, 27]: ≤ 4.30

Sequence: LPVLLGSFGC
pKd [14, 26]: 5.23
pKd [12, 26]: ≤ 4.36
pKd [13, 26]: 6.93

Sequence: LPVWLSYKVA
pKd [14, 26]: 6.06

Sequence: MAICSAVPT
pKd [14, 27]: 6.27

Sequence: NISLPLYTV
pKd [9, 33]: 7.32
pKd [8, 33]: 8.07

Sequence: NPTTLIASL
pKd [4, 27]: 6.68

Sequence: NPWMEDKTH
pKd [14, 26]: 5.64

Sequence: NSALTLHWF
pKd [11, 25]: 5.63

Sequence: NSEQGGKAY
pKd [11, 26]: 6.32

Sequence: QLANETTQA
pIC50 ([2]; source organism: Sudan ebolavirus): 4.59

Sequence: QLNETIYTS
pIC50 [2, 29]: 5.55

Sequence: QLQCHQIAI
pKd [9, 34]: 7.04
pKd [6, 34]: 4.88
pKd [8, 34]: 5.27
pKd [15, 34]: 5.17
pKd [3, 34]: 5.14

Sequence: RAADEPPLV
pIC50 [2, 21]: 5.55

Sequence: REAKATRPL
pKd ([16]; source organism: Mycobacterium tuberculosis): 7.09

Sequence: RIYCQENPY
pKd [6, 32]: 7.04
pKd [7, 32]: 7.58

Sequence: RNHLRDLMGV
pKd [17]: 6.37
pKd [18]: 6.13
pKd [19]: 6.97
